{
  "source": "patent US20150086557A1",
  "about": "“NOVEL INTEGRIN alpha9 beta1 LIGAND AND USES THEREOF” (OSAKA UNIVERSITY, priority 2012, published 2015)",
  "key": {"integrin α9β1": {"target": "T1, integrin α9β1 (Homo sapiens, UniProt P05556+Q13797)", "T1 construct": "A cDNA encoding the extracellular region of human integrin α9; An expression vector for the extracellular region of integrin β1; ACID coiled-coil (Velcro) peptide; FLAG; BASE coiled-coil (Velcro) peptide; made in house; host or cells: FreeStyle 293 Expression System (293-F cells)", "T1 sequence (Q13797 30-981 limits assumed)": "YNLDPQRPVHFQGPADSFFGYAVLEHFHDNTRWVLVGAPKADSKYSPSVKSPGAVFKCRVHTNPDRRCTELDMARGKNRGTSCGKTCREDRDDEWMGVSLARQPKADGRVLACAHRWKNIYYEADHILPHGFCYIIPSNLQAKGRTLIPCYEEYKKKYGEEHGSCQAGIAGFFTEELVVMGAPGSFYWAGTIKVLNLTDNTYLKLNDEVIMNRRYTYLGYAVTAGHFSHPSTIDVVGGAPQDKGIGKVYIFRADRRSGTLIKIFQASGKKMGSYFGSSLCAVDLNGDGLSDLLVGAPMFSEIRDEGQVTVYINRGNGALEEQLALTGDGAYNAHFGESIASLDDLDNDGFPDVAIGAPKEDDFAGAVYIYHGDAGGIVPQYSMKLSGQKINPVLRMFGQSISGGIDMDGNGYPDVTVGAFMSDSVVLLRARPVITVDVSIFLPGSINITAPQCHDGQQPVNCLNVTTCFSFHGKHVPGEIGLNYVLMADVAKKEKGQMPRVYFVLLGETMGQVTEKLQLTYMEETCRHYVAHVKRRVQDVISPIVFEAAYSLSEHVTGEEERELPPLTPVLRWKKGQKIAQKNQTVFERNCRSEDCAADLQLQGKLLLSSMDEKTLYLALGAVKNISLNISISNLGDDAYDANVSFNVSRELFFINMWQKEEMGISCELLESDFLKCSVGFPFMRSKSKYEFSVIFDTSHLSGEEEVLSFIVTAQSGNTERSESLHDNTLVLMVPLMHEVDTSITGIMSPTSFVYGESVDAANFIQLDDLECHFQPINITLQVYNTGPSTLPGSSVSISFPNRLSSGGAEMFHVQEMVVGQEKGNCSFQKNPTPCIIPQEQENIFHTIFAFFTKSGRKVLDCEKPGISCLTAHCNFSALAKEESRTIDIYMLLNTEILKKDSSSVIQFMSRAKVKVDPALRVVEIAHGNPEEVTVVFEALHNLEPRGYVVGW", "T1 sequence (P05556 21-728 limits assumed)": "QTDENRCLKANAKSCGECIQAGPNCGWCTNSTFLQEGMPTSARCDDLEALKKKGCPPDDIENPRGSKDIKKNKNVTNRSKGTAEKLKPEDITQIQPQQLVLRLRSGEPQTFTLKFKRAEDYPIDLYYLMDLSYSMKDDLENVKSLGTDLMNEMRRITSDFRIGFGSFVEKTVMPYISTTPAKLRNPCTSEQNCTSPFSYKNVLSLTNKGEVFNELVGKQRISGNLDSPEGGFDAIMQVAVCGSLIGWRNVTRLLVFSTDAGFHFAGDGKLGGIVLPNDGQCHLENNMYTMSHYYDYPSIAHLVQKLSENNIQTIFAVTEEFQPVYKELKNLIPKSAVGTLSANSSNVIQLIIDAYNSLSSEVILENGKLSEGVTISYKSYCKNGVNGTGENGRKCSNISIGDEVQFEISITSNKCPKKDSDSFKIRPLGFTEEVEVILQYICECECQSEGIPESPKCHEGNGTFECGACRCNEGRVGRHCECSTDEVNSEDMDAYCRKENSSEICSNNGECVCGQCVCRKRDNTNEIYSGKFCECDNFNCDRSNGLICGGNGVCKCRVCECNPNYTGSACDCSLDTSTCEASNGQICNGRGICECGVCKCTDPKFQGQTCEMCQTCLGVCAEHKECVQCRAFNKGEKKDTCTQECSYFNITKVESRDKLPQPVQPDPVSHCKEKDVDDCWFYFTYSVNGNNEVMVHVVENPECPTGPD", "test": "Direct integrin binding assay with recombinant integrin α9β1", "settings": "for binding of integrin α9β1 to smaller segments of D2628-S2664: 1 mM MnCl2, FIG. 13; for binding of recombinant integrin α9β1 to coated protein: 1 mM MnCl2, FIG. 7", "description": "A cDNA encoding the extracellular region of human integrin α9 was amplified by RT-PCR from total RNA extracted from RD cells and cloned into pBluescript KS(+). After verification of the nucleotide sequence, an error-free cDNA fragment was inserted into pcDNA-ACID-FLAG (Nishiuchi, R., Takagi, J., Hayashi, M., Ido, H., Yagi, Y., Sanzen, N., Tsuji, T., Yamada, M., and Sekiguchi, K. (2006) Matrix Biol. 25, 189-197). An expression vector for the extracellular region of integrin β1 was provided by Dr. Junichi Takagi (Takagi, J., Erickson, H. P., and Springer, T. A. (2001) Nat. Struct. Biol. 8, 412-416). The recombinant integrins were produced using the Freestyle™ 293 Expression System (Invitrogen) and purified as described in the above-mentioned publication Matrix Biol. 25, 189-197, (2006).\nAn integrin binding assay was performed as described in the above-mentioned publication Matrix Biol. 25, […], (2006). In some experiments, integrins were preincubated with synthetic peptides at various concentrations to evaluate the inhibitory activities of the synthetic peptides. The apparent dissociation constants were determined as described in Nishiuchi, R., Murayama, O., Fujiwara, H., Gu, J., Kawakami. T., Aimoto, S., Wada, Y., and Sekiguchi, K. (2003) J. Biochem, 134, 497-504.\nTo corroborate the role of integrin α9β1 as an adhesion receptor for polydom, a direct integrin binding assay was performed, using recombinant integrin α9β1. Plates were coated with full-length polydom, pol-N, pol-C, plasma fibronectin (pFN) or cellular fibronectin (cFN), and recombinant integrin α9β1 was added and allowed to bind thereto in the presence of 1 mM MnCl2 or 10 mM EDTA. BSA was used as a negative control. The bound integrin was quantified using a biotinylated anti-Velcro antibody and HRP-conjugated streptavidin.\nIntegrin α9β1 is known to bind to the third fibronectin type III domain of tenascin-C (TNfn3) and the osteopontin N-terminal half (OPN-Nhalf). These integrin α9β1 ligands were recombinantly expressed as GST fusion proteins and then purified. In the GST fusion proteins, the RGD cell-adhesive motifs were replaced with RAA to nullify their abilities to interact with RGD-binding integrins, such as those containing the αv subunit, Microtiter plates were coated with pol-C (10 nM), GST-TNfn3-RAA (100 nM) or GST-OPN-Nhalf-RAA (100 nM), and integrin α9β1 was added and allowed to bind thereto in the presence of 1 mM MnCl2.\nTo locate the integrin α9β1-binding site within polydom, a series of five N-terminal deletion mutants of polydom (pol-C, ΔEGF6, ΔPTX, ΔCCP20 and ΔCCP21; see FIG. 9) were constructed. Their binding activities for integrin α9β1 were evaluated in the presence of 1 mM MnCl2 or 10 mM EDTA using microtiter plates coated with these recombinant proteins (10 nM).\nAmong the 34 CCP domains within polydom, CCP21 is unique because it contains about 40 extra amino acids as compared with the other CCP domains. An assay to examine whether this extra region (hereinafter referred to as “extra segment”) within CCP21 is involved in binding to integrin α9β1 was performed, Microtiter plates were coated with a GST-CCP21 fusion protein, a D2628-S2664 deletion mutant of the GST-CCP21 fusion protein (CCP21ΔD2628-S2664), D2628-S2664 alone (see FIG. 11), pol-C or GST alone, and integrin α9β1 was added and allowed to bind thereto in the presence of 1 mM MnCl2 or 10 mM EDTA.\nTo further narrow down the region responsible for binding to integrin α9β1, the extra 37-amino acid segment of CCP21 was divided into smaller segments, of which GST fusion proteins were produced. Microtiter plates were coated with eight kinds of segments including CCP21, pol-C and GST alone, and integrin α9β1 was added and allowed to bind thereto in the presence of 1 mM MnCl2 or 10 mM EDTA.\nTo identify the residues involved in binding to Integrin α9β1, alanine scanning mutants and N-terminal or C-terminal deletion mutants of D2634-L2645 were produced as GST fusion proteins. […]"}, "hematopoietic stem cells": {"system": "hematopoietic stem cells", "test": "Proliferation of hematopoietic stem cells on coated plates", "type": "cell-based, mouse", "settings": "peptide 50 μM for 2 hours, then polydom-coated plate, FIG. 20", "description": "Bone marrow cells were flushed out from the femurs and tibias of three mice of 6 to 7 weeks of age (C57BL/6J) and dissociated with a 22G needle. The cells were reacted with a biotin-labeled anti-lineage antibody for 30 minutes and subsequently with an anti-blotin antibody-conjugated magnetic beads, and lineage-positive cells were removed by automated magnetic cell sorter autoMACS (Miltenyi Biotec). After staining with PE-CD3, PE-Mac1, PE-Gr1, PE-Ter119, PE-B220, FTTC-Sca1 and APC-c-Kit, a lineage(−) Sca1(+) c-Kit (high) cell fraction was sorted out using FACSAria and used for the experiments described below.\nThe above-prepared cells were plated on a 48-well plate coated with a recombinant polydom protein or fibronectin. The same type of plate without coating was used as a control. The medium used was RPMI containing 10% fetal calf serum, thrombopoietin (30 ng/ml) and flt3 ligand (100 ng/ml). For the examination of cell proliferation, the cells were plated in duplicate wells for each coating at 1000 cells/well and started to be cultured, and the cell number was counted at the start of culture, and on day 2 and day 3. The remaining cells were divided into three aliquots, plated in wells for each coating, and subjected to FACS analysis on day 3 after the start of culture. For the FACS analysis, staining with an antibody cocktail containing PE-CD3, PE-Mac1, PE-Gr1, PE-Ter119, PE-B220, FITC-Sca1 and APC-c-Kit was performed and FACSCont was used.\nThe above-prepared cells were divided into three groups and plated on 48-well plates at 5000 cells/well. The medium used was RPMI containing 10% fetal calf serum, thrombopoietin (30 ng/ml) and flt3 ligand (100 ng/ml). For an EDDMMEVPY peptide treatment group, 2 μl of the peptide was added to each well at the final concentration of 50 μM, and for the other two groups, 2 μl of PBS was added to each well. Then, the culture was performed at […] for 2 hours. Subsequently, the cells were transferred to 48-well plates coated with a recombinant polydom protein or fibronectin. The cells cultured in the presence of the peptide were transferred to the recombinant polydom protein-coated plate, and the cells in one of the other two groups were transferred to the recombinant polydom protein-coated plate, and the cells in the remaining group were transferred to the fibronectin-coated plate. The culture was continued for 3 days and the cell numbers were counted on day 2, day 3 and […]."}, "RD cells": {"system": "RD cells", "test": "Cell adhesion assay on coated plates (RD cells)", "type": "cell-based, human", "settings": "for promotion of RD cell adhesion: coated 96-well plates, 37° C. for 30 minutes", "description": "A cell adhesion assay was performed as described in Sato, Y. , Uemura, T., Morimitsu, K., Sato-Nishiuchi, R., Manabe, R., Takagi, J., Yamada, M., and Sekiguchi, K. (2009) J. Biol. Chem. 284, 14524-14536. For an assay involving blocking antibodies, RD cells (human rhabdomyosarcoma cells) were preincubated with monoclonal antibodies of interest at room temperature for 15 minutes and plated on 96-well plates coated with recombinant polydom proteins or fibronectin. The cells were incubated for 30 minutes, washed, fixed with 3.7% formaldehyde, and stained with 0.5% toluidine blue.\nThe cells were plated on 96-well plates coated with serial diluted concentrations of full-length polydom, pol-N, pol-C or plasma fibronectin (FN) and incubated at 37° C. for 30 minutes. After washing out unattached cells, attached cells were fixed and stained with toluidine blue. The attached cells were counted under a microscope. The assay was performed in triplicate."}, "[1]": {"target": "recombinant integrin α9β1 (human, UniProt Q13797 30-981; P05556 21-728)", "sequence (Q13797 30-981, chain 1 of 2)": "as the sequence (Q13797 30-981 limits assumed) above", "sequence (P05556 21-728, chain 2 of 2)": "as the sequence (P05556 21-728 limits assumed) above", "test": "inhibition of integrin α9β1 (10 nM) binding to coated pol-C (10 nM) by synthetic peptide, 1 mM MnCl2, 10% DMSO", "description": "To further corroborate the role of […] as the integrin α9β1 recognition sequence, an integrin α9β1-pol-C binding inhibition assay was performed using synthetic peptides consisting of the […] sequence or a part of the sequence, Integrin α9β1 (10 nM) was incubated on microtiter plates coated with pol-C (10 nM) in the presence of 1 mM MnCl₂ and various concentrations of the synthetic peptides. To prevent precipitation of the peptides, the assay was performed in the presence of 10% DMSO. Based on the amount of integrin α9β1 bound to pol-C set as 100%, the relative binding amount was calculated."}},
  "note": "Where no end group is shown, it is not given here.",
  "data": [
    {"molecule": "D2628-L2645: segment in the N-terminal region of D2628-S2664, GST fusion protein (DGQGHFDQEDDMMEVPYL; also: GST fusion protein)", "values": [
      {"measurement": "binding of integrin α9β1 to smaller segments of D2628-S2664", "setting": "integrin α9β1; GST fusion proteins", "result": "bound"}
    ]},
    {"molecule": "D2628-S2664: extra 37-amino acid segment of CCP21, GST fusion (DGQGHFDQEDDMMEVPYLAHPQHLEATAKALENTKES; also: GST fusion)", "values": [
      {"measurement": "binding to integrin α9β1 (extra segment of CCP21)", "setting": "integrin α9β1; GST fusion proteins, 1 mM MnCl2, FIG. 12", "result": "retained the binding activity"}
    ]},
    {"molecule": "D2634-L2645: 12-amino acid segment in the extra segment of CCP21, GST fusion protein (DQEDDMMEVPYL; also: GST fusion protein)", "values": [
      {"measurement": "binding of integrin α9β1 to smaller segments of D2628-S2664", "setting": "integrin α9β1; GST fusion proteins", "result": "bound"}
    ]},
    {"molecule": "E2641A: alanine substitution of Glu2641 in D2634-L2645, GST fusion protein (DQEDDMMAVPYL; also: GST fusion protein)", "values": [
      {"measurement": "integrin binding activity of alanine scanning mutants of D2634-L2645", "setting": "integrin α9β1; GST fusion proteins, FIG. 14", "result": "almost completely abrogated the integrin binding activity"}
    ]},
    {"molecule": "EDDMMEVPY [EDDMMEVPY]", "values": [
      {"measurement": "proliferation of hematopoietic stem cells on polydom-coated plate after peptide treatment", "setting": "hematopoietic stem cells; listed as EDDMMEVPY peptide", "result": "proliferate albeit more slowly than the cells on the fibronectin-coated plate"},
      {"measurement": "proliferation of hematopoietic stem cells on polydom-coated plate after peptide treatment", "setting": "hematopoietic stem cells; listed as peptide consisting of the amino acid sequence represented by SEQ ID NO: 1", "result": "canceled"}
    ]},
    {"molecule": "pol-C: C-terminal fragment of polydom, residues 1192 to 3567 of SEQ ID NO: 2, C-terminal His tag", "values": [
      {"measurement": "binding of recombinant integrin α9β1 to coated protein", "setting": "integrin α9β1", "result": "bound"},
      {"measurement": "Kd", "setting": "integrin α9β1; pol-C coated at 10 nM, 1 mM MnCl2, three independent determinations, read-out: dissociation constant between integrin α9β1 and ligand", "result": "32.4 ± 2.7", "unit": "nM"},
      {"measurement": "cell adhesion potency compared with full-length polydom", "setting": "RD cells; FIG. 4", "result": "almost equivalent to that of full-length polydom"},
      {"measurement": "promotion of RD cell adhesion", "setting": "RD cells; FIG. 4", "result": "capable of promoting cell adhesion"},
      {"measurement": "morphology of attached RD cells", "setting": "RD cells; microscopic observation, FIG. 5", "result": "exhibited spread morphology"}
    ]},
    {"molecule": "pol-N: N-terminal fragment of polydom, residues 18 to 789 of SEQ ID NO: 2, C-terminal His tag (protein, listed as Mus musculus, C-terminal His tag) WTNFQPVAPSLNFSFRLFPEASPGALGRLAVPPASSEEEAAGSKVERLGRAFRSRVRRLRELSGSLELVFLVDESSSVGQTNFLNELKFVRKLLSDFPVVSTATRVAIVTFSSKNNVVARVDYISTSRAHQHKCALLSREIPAITYRGGGTYTKGAFQQAAQILRHSRENSTKVIFLITDGYSNGGDPRPIAASLRDFGVEIFTFGIWQGNIRELNDMASTPKEEHCYLLHSFEEFEALARRALHEDLPSGSFIQEDMARCSYLCEAGKDCCDRMASCKCGTHTGQFECICEKGYYGKGLQHECTACPSGTYKPEASPGGISTCIPCPDVSHTSPPGSTSPEDCVCREGYQRSGQTCEVVHCPALKPPENGFFIQNTCKNHFNAACGVRCRPGFDLVGSSIHLCQPNGLWSGTESFCRVRTCPHLRQPKHGHISCSTAEMSYNTLCLVTCNEGYRLEGSTRLTCQGNAQWDGPEPRCVERHCATFQKPKGVIISPPSCGKQPARPGMTCQLSCRQGYILSGVREVRCATSGKWSAKVQTAVCKDVEAPQISCPNDIEAKTGEQQDSANVTWQVPTAKDNSGEKVSVHVHPAFTPPYLFPIGDVAITYTATDSSGNQASCTFYIKVIDVEPPVIDWCRSPPPIQVVEKEHPASWDEPQFSDNSGAELVITSSHTQGDMFPHGETVVWYTATDPSGNNRTCDIHIVIKGSPCEVPFTPVNGDFICAQDSAGVNCSLSCKEGYDFTEGSTEKYYCAFEDGIWRPPYSTEWPDCAI", "values": [
      {"measurement": "binding of recombinant integrin α9β1 to coated protein", "setting": "integrin α9β1", "result": "not"},
      {"measurement": "promotion of RD cell adhesion", "setting": "RD cells; FIG. 4", "result": "only pol-C was capable"}
    ]},
    {"molecule": "AEIDGIEL", "note": "[AEIDGIEL peptide (integrin α9β1 recognition sequence in tenascin-C, synthetic)]", "values": [
      {"measurement": "IC50", "setting": "[1]", "result": 7800, "unit": "nM"}
    ]},
    {"molecule": "EDDMMEVPY (Corresponds to Glu2636-Tyr2644 of mouse SVEP1)", "note": "[EDDMMEVPY peptide (synthetic)]", "values": [
      {"measurement": "IC50", "setting": "[1]", "result": 180, "unit": "nM"}
    ]}
  ]
}
